Patent publication US11578136B2, “Compositions and methods for treating cancer” (INNATE PHARMA, priority 2017, dated 2023)

Assays:
[1] = system: NTPDase1, NTPDase3, NPP1 or mouse NTPDase8; conditions: not specific for CD39; cited from earlier work
[2] = target: T1, soluble recombinant human CD39 protein (Homo sapiens, UniProt P49961); experiment: Inhibition of the enzymatic activity of soluble CD39 (Cell Titer Glo); format: biochemical; conditions: result in words; 400 ng/ml sCD39, 20 μM ATP
T1 construct: made in house; host or cells: CHO cells
T1 sequence (P49961 with tags, fused parts or gaps): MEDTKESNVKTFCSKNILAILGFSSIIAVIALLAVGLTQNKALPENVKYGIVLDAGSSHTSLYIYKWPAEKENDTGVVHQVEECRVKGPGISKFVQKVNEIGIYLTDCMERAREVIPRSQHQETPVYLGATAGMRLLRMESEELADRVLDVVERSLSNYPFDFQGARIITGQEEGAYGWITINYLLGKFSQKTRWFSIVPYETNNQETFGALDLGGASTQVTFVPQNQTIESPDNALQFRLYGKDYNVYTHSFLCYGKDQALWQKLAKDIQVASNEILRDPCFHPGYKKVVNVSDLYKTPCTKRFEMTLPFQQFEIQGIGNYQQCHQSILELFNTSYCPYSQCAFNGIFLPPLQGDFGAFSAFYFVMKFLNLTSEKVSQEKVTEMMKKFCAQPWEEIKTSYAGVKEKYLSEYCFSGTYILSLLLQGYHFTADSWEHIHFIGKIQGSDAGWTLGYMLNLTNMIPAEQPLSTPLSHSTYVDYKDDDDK
Protocol: The inhibition by antibodies of the enzymatic activity of soluble CD39 protein produced was evaluated using Cell Titer Glo™ (Promega, reference G7571) that allows assessment of ATP hydrolysis through use of a reagent that generates a luminescent signal proportional to the amount of ATP present. In this way, inhibition of the soluble-CD39-meidatd ATP hydrolysis can be assessed. Briefly, dose ranges of anti-CD39 antibodies from 100 μg/ml to 6×10^−3 μg/ml were incubated with 400 ng/ml of soluble recombinant human CD39 protein having the amino acid sequence described in the Methods section (SEQ ID NO: 45), for 1 h at 37° C. 20 μM ATP was added to the plates for 30 additional minutes at 37° C. before addition of CTG (Cell Titer Glo) reagent. Emitted light was quantified using an Enspire™ luminometer after a short incubation period of 5 min in the dark. Anti-CD39 antibody efficacy was determined by comparing emitted light in presence of antibody with ATP alone (maximal light emission) and ATP together with soluble CD39 protein (minimal light emission).

[3] = system: CD39 mutants transfected in Hek-293T cells; experiment: Epitope mapping: binding to CD39 mutants by flow cytometry; parameters: species or system human
Protocol: CD39 mutants were generated by PCR. The sequences amplified were run on agarose gel and purified using the Macherey Nagel PCR Clean-Up Gel Extraction kit (reference 740609). The purified PCR products generated for each mutant were then ligated into an expression vector, with the ClonTech InFusion system. The vectors containing the mutated sequences were prepared as Miniprep and sequenced. After sequencing, the vectors containing the mutated sequences were prepared as Midiprep using the Promega PureYield™ Plasmid Midiprep System. HEK293T cells were grown in DMEM medium (Invitrogen), transfected with vectors using Invitrogen's Lipofectamine 2000 and incubated at 37° C. in a CO2 incubator for 48 hours prior to testing for transgene expression. The targeted amino acid mutations in the table 1 below are shown using numbering of SEQ ID NO: 1.
In order to define the epitopes of anti-CD39 antibodies, we designed CD39 mutants defined by substitutions of amino acids exposed at the molecular surface over the surface of CD39. Mutants were transfected in Hek-293T cells, as shown in the table 1, using numbering of SEQ ID NO: 1.
Dose-ranges of I-394 (10-2.5-0.625-0.1563-0.0391-0.0098-0.0024-0.0006 μg/ml) are tested on the 20 generated mutants by flow cytometry. […] Mutant 5 contains amino acid substitutions at residues Q96, N99, E143 and R147.
Mutants were transfected in Hek-293T cells, as shown in the table 1, using numbering of SEQ ID NO: 1. Dose-ranges of antibodies I-394 were tested on the 20 mutants by flow cytometry. […] Mutant 19 includes substitutions at residues R138, M139 and E142. The core epitope of I-394 thus includes one or more (or all of) residues R138, M139 and E142.
Mutants were transfected in Hek-293T cells, as shown in the table 1, using numbering of SEQ ID NO: 1.Dose-ranges of test antibodies (10-2.5-0.625-0.1563-0.0391-0.0098-0.0024-0.0006 μg/ml) are tested on the 20 generated mutants by flow cytometry.

## CCN(CC)c1ncnc2c1ncn2[C@@H]1O[C@H](COP(=O)(O)OP(=O)(O)C(Br)(Br)P(=O)(O)O)[C@@H](O)[C@H]1O [ARL67156]
[1]
  type of inhibition of NTPDases: weak competitive inhibitor

B1: I-399: anti-CD39 antibody, VH SEQ ID NO: 30, VL SEQ ID NO: 31 (antibody, listed as Mus musculus, V domains shown)
VH: PVQLQQPGAEVVMPGASVKLSCKASGYTFTSFWMNWMRQRPGQGLEWIGEIDPSDFYTNSNQRFKGKATLTVDKSSSTAYMQLSSLTSEDSAVYFCARGDFGWYFDVWGTGTSVTVSS
VL: EIVLTQSPTTMTSSPGEKITFTCSASSSINSNYLHWYQQKPGFSPKLLIYRTSNLASGVPTRFSGSGSGTSYSLTIGTMEAEDVATYYCQQGSSLPRTFGGGTKLEIK
[2]
  inhibition of the enzymatic activity of soluble CD39 protein: showed inhibition
[3]; mutant 11: N371K, L372K, E375A, K376G, V377A, insertion 377V
  binding to mutant 11 of CD39: loss of binding
[3]; remaining mutants of Table 1
  binding to any other mutant of the 20 CD39 mutants: without loss of binding
